Measured values as given in patent publication US10294504B2, “Mutant endoglycoceramidases with enhanced synthetic activity” (La Jolla Pharmaceutical Company, priority 2004, dated 2019).

Experiment: Hydrolysis kinetics of wild-type Rhodococcus EGC using 2,4-dinitrophenyl lactoside as the substrate
Type: biochemical
Protocol: FIG. 18 illustrates a Michaelis-Menten curve for wild-type Rhodococcus EGC using 2,4-dinitrophenyl lactoside as the substrate.
FIGS. 19A-19C illustrate variation of kcat, Km, and kcat/Km with increasing detergent concentration for wild-type Rhodococcus EGC.
FIG. 20 illustrates pH rate profile for wild-type Rhodococcus EGC.
Using 2,4-dinitrophenyl lactoside as a substrate, the Rhodococcus M-777 EGC enzyme has a Km of approximately 2 mM, and a kcat of 90 min-1 (FIG. 18). The dependence of the activity on detergent concentration was also investigated. […] The dependence of kcat/Km on detergent concentration leveled off at concentrations greater than 0.5%; increasing the detergent concentration caused a steady increase in both kcat and Km up to a concentration of 1% (FIGS. 19A-C). The pH dependence of the hydrolysis activity was also investigated. As expected, the maximal kcat/Km is observed around pH 5 (FIG. 20).

[1] = substrate 2,4-dinitrophenyl lactoside

B1: Rhodococcus M-777 EGC: wild-type endoglycoceramidase from Rhodococcus sp. M-777, GenBank AAB67050, SEQ ID NO:3 (protein, listed as Rhodococcus sp.)
chain: MRRTRLVSLIVTGSLVFGGGVAAAQSSLAASGSGSGSGTALTPSYLKDDDGRSLILRGFNTASSAKSAPDGMPQFTEADLAREYADMGTNFVRFLISWRSVEPAPGVYDQQYLDRVEDRVGWYAERGYKVMLDMHQDVYSGAITPEGNSGNGAGAIGNGAPAWATYMDGLPVEPQPRWELYYIQPGVMRAFDNFWNTTGKHPELVEHYAKAWRAVADRFADNDAVVAYDLMNEPFGGSLQGPAFEAGPLAAMYQRTTDAIRQVDQDTWVCVAPQAIGVNQGLPSGLTKIDDPRAGQQRIAYCPHLYPLPLDIGDGHEGLARTLTDVTIDAWRANTAHTARVLGDVPIILGEFGLDTTLPGARDYIERVYGTAREMGAGVSYWSSDPGPWGPYLPDGTQTLLVDTLNKPYPRAVAGTPTEWSSTSDRLQLTIEPDAAITAPTEIYLPEAGFPGDVHVEGADVVGWDRQSRLLTVRTPADSGNVTVTVTPAA
What does the source list for B1?
rate of hydrolysis (in the absence of detergent): very low; pH of maximal kcat/Km (pH dependence of the hydrolysis activity): ~5 pH; Km [1]: ~2000 µM; kcat [1]: 1.5 s⁻¹
